Assay [1] deals with T1, HCV bt-134-154 (Peptide 1, HCVc 134-154) (Hepatitis C virus (numbering per HCV-1), biotin (carboxy-terminal per; N-terminal per)).
T1 peptide: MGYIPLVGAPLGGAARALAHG
Description: EIA, captured mAb + biotin peptide.

Assay [2] addresses T2, HCV bt-141-161 (Peptide 2, HCVc 141-161) (Hepatitis C virus (numbering per HCV-1), biotin (carboxy-terminal per; N-terminal per)).
T2 peptide: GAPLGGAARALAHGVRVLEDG
Description: EIA, captured mAb + biotin peptide.

Assay [3] deals with T3, HCV bt-151-171 (Peptide 3, HCVc 151-171) (Hepatitis C virus (numbering per HCV-1), biotin (carboxy-terminal per; N-terminal per)).
T3 peptide: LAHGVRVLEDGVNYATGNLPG
Kind of assay: EIA, captured mAb + biotin peptide.

For assay [4], the target named is T4, HCV Core 134-171-TT Peptide (hepatitis C virus (HCV-1 numbering) …).
T4 construct: also called ALRZ-9 peptide
Description: SPR, captured mAb, peptide analyte. (Surface plasmon resonance follows binding to a sensor surface in real time, without labels.)

These results are taken from patent publication US20170052184A1 (published 2017).

B1: HCV 208A-1064 (antibody, V domains shown)
VH: EVQLQQSGPELVKPGASVKISCKTSGYTFTEYAMHWMKQSHGKSLEWIGGINPTNGDTIYNQKFKDKAKLTVDRSSSTAYMELRSLTSDDSALFYCARRELDYFASWGQGTTLTVSS
VL: DIVLTQSPASLIVSLGQTATISCRASQSVSTSRFSYLHWIQQKPGQPPKLLIKYASNLESGVPVRFSGSGSGTDFTLNIHPVEEEDTATYFCQHSWEFPFTFGSGTKLKIKR
Consider B1, for which the “Reactivity (OD 492 nm)” value in assay [1] is 0.1 OD units; in assay [2] it was 3.5 OD units; in assay [3] it was 0.12 OD units.

B2: HCV 208A-920 (antibody, V domains shown)
VH: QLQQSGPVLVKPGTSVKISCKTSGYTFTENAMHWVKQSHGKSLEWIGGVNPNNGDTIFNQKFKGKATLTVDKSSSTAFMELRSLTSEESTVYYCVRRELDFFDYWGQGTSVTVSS
VL: DIVLTQSPASLAVSLGQRATISCRASQSVSTSRYSYMHWYQQKPGQPPKLLIKYASNLESGVPARFSGSGSGTDFTLNIHPVAEEDTAAYYCQHSWEFPFTFGSGTKLEIKR
B2: the “Reactivity (OD 492 nm)” value in assay [1] came to 0.17 OD units; in assay [2], 4 OD units; in assay [3], 0.08 OD units.

B3: HCV 208A-334 (antibody, V domains shown)
VH: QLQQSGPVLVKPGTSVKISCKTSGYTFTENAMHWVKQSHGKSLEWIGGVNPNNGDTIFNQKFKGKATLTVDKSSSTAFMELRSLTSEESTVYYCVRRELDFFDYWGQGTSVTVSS
VL: DIVLTQSPASLAVSLGQRATISCRASQSVSTSRYSYMHWYQQKPGQPPKLLIKYASNLESGVPARFSGSGSGTDFTLNIHPVAEEDTAAYYCQHSWGFPFTFGSGTKLEIKR
For B3, the results for the “Reactivity (OD 492 nm)” value in assay [1], in assay [2] and in assay [3] were 0.05 OD units, 3.07 OD units and 0.05 OD units, respectively.

B4: HCV 208A-110 (antibody, V domains shown)
VH: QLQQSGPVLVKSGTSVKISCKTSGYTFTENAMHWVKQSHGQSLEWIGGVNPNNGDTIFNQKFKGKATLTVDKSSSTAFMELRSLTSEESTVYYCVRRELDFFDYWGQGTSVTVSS
VL: DIVLTQSPASLAVSLGQRATISCRASQSVSTSRYSYMHWYQQKPGQPPKLLIKYASNLESGVPARFSGSGSGTDFTLNIHPVAEEDTAAYYCQHSWEFPFTFGSGTKLEIKR
As for B4, the “Reactivity (OD 492 nm)” value in assay [1] is 0.07 OD units; in assay [2] it was 2.88 OD units; in assay [3], 0.11 OD units.

B5: HCV 208A-133 (antibody, V domains shown)
VH: QLQQSGPVLVGPGASVMISCKTSGYTFTENAMHWVEQSHGKSLEWIGGVNPNNGDTIFNQKFKGKATLTVDKSSSTAFMEFRSLTSEESTVYYCVRRELDFFDYWGQGTSVTVSS
VL: DIVLTQSPASLAVSLGQRATISCRASQSVSTSRYSYMHWYQQKPGQPPKLLIKYASNLESGVPARFSGSGSGTDFTLNIHPVAEEDTATYYCQHSWEFPFTFGSGTKLEIKR
B5: the “Reactivity (OD 492 nm)” value in assay [1] stood at 0.1 OD units; in assay [2], 3.68 OD units; in assay [3], 0.13 OD units.

B6: HCV 208A-159 (antibody, V domains shown)
VH: QLQQSGPAQVKPGASVMISCKTSGYTFTENAMHWVKQSHGKSLEWIGGVNPNNGDTIFNQKFKDKAALTVDKSSSTAFMELRSLTSEESTVYYCVRRELDFFDYWGQGTSVTVSS
VL: DIVLTQSPASLAVSLGQRATISCRASQSVSTSRYSYVHWYQQKPGQPPKLLIKYAANLESGVPARFSGSGSGTDFTLNIHPVAEEDAAAYYCQHSWEFPFTFGSGTKLEIKR
With B6, the “Reactivity (OD 492 nm)” value in assay [1] came to 0.15 OD units; in assay [2], 3.77 OD units; in assay [3] it was 0.19 OD units.

B7: HCV 208B-251 (antibody, V domains shown)
VH: QLQQSGPVLVKPGASVKISCKTSGYTFTENAMHWVKQSHGKSLEWIGGVNPNNGDTIYNQKFKGKATLTVDKSSSTAFMELRSLTSEESPVYFCVRRELDFFDYWGQGTSVTVSS
VL: DIVLTQSPASLAVSLGKKATISCRASQSVSTSRYSYMHWYQQKPGHPPKLLIKYASNLESGVPARFSGSGSGTDFTLNIHPVAEEDTAAYYCQHSWEFPFTFGSGTKLEIKR
For the molecule B7, the “Reactivity (OD 492 nm)” value was 0.11 OD units in assay [1], 2.35 OD units in assay [2] and 0.41 OD units in assay [3].

B8: HCV 208A-293 (antibody, V domains shown)
VH: EVQLQQSGPELVKPGASVKISCKASGFTFTEYAMHWMKQSHGKSLEWIGGINPTNGDAIYNQKFKDKAKLTVDRSSSTAYMELRSLTSDDSALFYCARRELDYFPSWGQGTTLTVSS
VL: DIVLTQSPASLIVSLGQRATISCRASQSVSTSRFSYVHWIQQKPGQPPKLLIKYASNLESGVPVRFSGSGSGTDFILNIHPVEEEDTATYFCQHSWEFPFTFGSGTKLEIKR
Consider B8, for which the “Reactivity (OD 492 nm)” value in assay [1] was 0.08 OD units; in assay [2] it was 2.42 OD units; in assay [3], 0.11 OD units.

B9: HCV 208B-556 (antibody, V domains shown)
VH: QLQQSGPVLVKPGASVMISCKTSGYTFTENAMHWVKQSHGKSLEWIGGVNPNNGDTIFNQKFKGKATLTVDKSSSTAFMEFRSLTSEESTVYYCVRRELDFFDYWGQGTSVTVSS
VL: DIVLTQSPASLAVSLGQRATISCRASQSVSTSRYSYMHWYQQKPGQPPKLLIKYASNLESGVPARFSGSGSGTDFTLNIHPVAEEDTATYYCQHSWEFPFTFGSGTKLEIKR
For B9, the “Reactivity (OD 492 nm)” value in assay [1] turned out to be 0.13 OD units; in assay [2], 3.07 OD units; in assay [3], 0.18 OD units.

B10: HCV 208A-741 (antibody, V domains shown)
VH: QLQQSGPVLVKPGASVMISCKTSGYTFTENAMHWVKQSHGKSLEWIGGVNPNNGDTIFNQKFKGKATLTVDKSSSTAFMELRSLTSEESTVYYCVRRELDFFDYWGQGTSVTVSS
VL: DIVLTQSPASLAVSLGQRTTISCGASQSVSTSRFSYMHWYQQKPGQPPKLLIKYASNLESGVPARFSGSGSGTDFTLNIHPVAEEDTAAYYCQHSWEFPFTFGSGTKLEIKR
As to B10, the “Reactivity (OD 492 nm)” value in assay [1] came out at 1.2 OD units; in assay [2], 3.37 OD units; in assay [3], 0.06 OD units.

B11: HCV 208B-1094 (antibody, V domains shown)
VH: EVQLQQSGPELVKPGASVKISCKTSGYTFTEYAMHWMKQSHGKSLEWIGGINPTNGDTIYNQRFKDKAKLTVDRSSSTAYMELRSLTSDDSALFYCARRELDYFASWGQGTTLTVSS
VL: DIVLTQSPASLIVSLGQTATISCRASQSLSTSRFSYVHWIQQKPGQPPKLLIKYASNLESGVPVRFSGSGSGTDFTLNIHPVEEEDTATYFCQHSWEFPFTFGSGTKLKIKR
With B11, the “Reactivity (OD 492 nm)” value in assay [1] turned out to be 0.12 OD units; in assay [2], 3.28 OD units; in assay [3] it was 0.13 OD units.

B12: HCV 208A-126 (antibody, V domains shown)
VH: QLQQSGPVLVKPGASVMISCKTSGYTFTENAMHWVKQSHGKSLEWIGGVNPNNGDTIFNQKFKGKATLTVDKSSNTAFTELRSLPSEESTVYYCVRRGLDFFDYWGQGTSVTVSS
VL: DIVLTQSPASLAVSLGQRATISCRASQSVSTSRYSYMHWYQQKPGQPPKLLIKYASNLESGVPARFSGSGSGTDFTLNIHPVAEEDTAAYYCQHSWEFPFTFGSGTKLEIKR
With B12, the “Reactivity (OD 492 nm)” value came out at 0.2 OD units in assay [1], 2.08 OD units in assay [2] and 0.1 OD units in assay [3].

B13: HCV 208B-1096 (antibody, V domains shown)
VH: QVQLQQSGAGLAKPGASVKMSCKASGYTFTANKMHWAKQRPGQGLEWIGYIDPSSGYTEYNHKIQYKATLTADTSSSTAYMQLSTLTFEDSAVYYCTNFAYWGQGTLVTVSA
VL: DIVMTQTPLTLSVTIGQPASISCKSSQSLLFTNGKTYLNWFLQRPGQSPKRLIYLLSKLDSGVPDRFSGSGSGTDFTLKISRVEAEDLGVYYCLQSTYFPLTFGAGTKLELKR
B13: the “Reactivity (OD 492 nm)” value in assay [2] was determined as 0.13 OD units; in assay [3], 3.56 OD units.

B14: HCV 208B-408 (antibody, V domains shown)
VH: EVKLVESGGGLVQPGGSLRLSCASSGFTFTDYYMSWVRQPPGKALEWLGFIRNKAYGYTTEFSASVNGRFTISRDDSQSVPYLQMNTLRAEDSATYYCARVLYYDYGGFAYWGQGTLVTVST
VL: DIQMTQSPASLSASVGETVTITCRASGNIHTYLAWYQQKQGKSPQLLVYNANTLADGVPSRFSGSGSGTQFSLKINSLQPDDFGSYYCQHFWSAPWTFGGGTQLEIKR
Regarding B14, the figures for the “Reactivity (OD 492 nm)” value in assay [1] and in assay [3] were 0.81 OD units and 0.16 OD units, respectively.

B15: HCV 208A-983 (antibody, V domains shown)
VH: QGQMQQSGAELVKPGASVKLSCKTSGFTFSSSYFSWLKQKPGQSLEWIAWIYAGTGNTIYNQKFTDKAQLTVDTASSTAFMQLSSLTIEDSAIYYCAISGTGFTYWGQGTLVTVSA
VL: DVLMTQTPLSLPVNLGDQASISCRSSQSLLHSNGNTYLEWFLQKPGQSPKLLIYNVSNRFSGVPDRFSGSGSGTDFTLKISRVEAEDLGVYYCFQGSHVPFTFGSGTKLAIKR
By Kd is commonly meant the constant that tells how readily two partners part at equilibrium. High values mean weaker binding, low ones tighter binding. In general, koff refers to a measure of how fast the partners let go of each other. The low end stands for slow dissociation, the high end for fast dissociation. Broadly, the kon is the rate constant with which the complex forms. Low values mean slow association, high ones fast association. Turning to B15, in assay [4], the Kd came to 0.46 nM, the koff is 4.6e-05 s⁻¹ and the kon turned out to be 97000 M⁻¹ s⁻¹.

B16: HCV 208B-471 (antibody, V domains shown)
VH: QGQLQQSGPVLVKPGASEILYCKTSGFTFSSTYISWLKQKPGQSLEWIAWIYAGTGATNYNQKFTGKAQLTVDASSNTAYMHFSGLTPEDSAIYYCAISGAGVYWGQGTLVTVSA
VL: DVVMTQTPLSLPVSLGDQASISCRSSQSLLHSNGNTYLEWYLQKPGQSPNLLIYNVSNRFSGVPDRFSGSGSGTDFALKISRVGAEDLGVYYCFQGSHVPLTFGAGTKLELKR
For the molecule B16, in assay [4], binding was put at a Kd of 0.25 nM, the koff was found to be 5.5e-05 s⁻¹ and the kon was determined as 220000 M⁻¹ s⁻¹.

B17: HCV 208A-692 (antibody, V domains shown)
VH: QGQMQQSGAELAKPGASVKLSCKTSGFTFSSSYISWLKQKPGQSLEWIAWIFAGTGNTNYNQKFTDKAQLTVDTSSSTAYMQLSSLTTEDSAIYYCAISGTGFTYWGQGTLVTVSA
VL: EVLMTQSPLSLPVSLGDQASISCRSSQSLEHSNGNTYLEWFLQRPGQPPKLLIYKVSSRFSGVPDRFSGSGSGTDFTLKISRVEAEDLGVYYCFQGSHVPFTFGSGTKLAIKR
With B17, the entries for the “Reactivity (OD 492 nm)” value in assay [1] and in assay [3] were 3.67 OD units and 0.07 OD units, respectively.

B18: HCV 208B-174 (antibody, V domains shown)
VH: EVKLEESGGGLVQPGGSMKLSCVASGFSFSSYWMSWVRQSPEKGLDWVAEIRLRSDNYATHYAESVKGRFTISRDDSISRLYLQMNTLRAEDTGIYYCTWMTYWGQGTLVTVSA
VL: QNVLTQSPAIMSASPGEKVTMSCSASSSVTYMFWYQLKPESSPRLLIYDTSNLASGVPVRFSGSGSGTSYSLTISRMEAEDAATYYCQEWSSYPLTFGAGTKLDLKR
For the molecule B18, in assay [4], the Kd was 0.25 nM, the off-rate constant (koff) worked out at 0.00018 s⁻¹ and the on-rate (kon) was found to be 760000 M⁻¹ s⁻¹.
